Laboratory results as given in patent US20240417462A1 (SHANGHAI CELGEN BIO PHARMACEUTICAL, published 2024).
Values joined by “and” are separate entries in the source; they are usually repeats but may differ in a detail not shown here. Identical values can stand only once. Like-named read-outs stand apart in the source and are kept apart here.

How the values were obtained:
[1] = biological target: T1, recombinant human TIGIT (Human TIGIT His, Sino Biological, 10917-H08H) (human, UniProt Q495A1 22-138); assay: competition ELISA, coated TIGIT-His, CD155-mFC as competitor
T1 construct: range 1-138; bought; also called hTIGIT
T1 sequence (looked up): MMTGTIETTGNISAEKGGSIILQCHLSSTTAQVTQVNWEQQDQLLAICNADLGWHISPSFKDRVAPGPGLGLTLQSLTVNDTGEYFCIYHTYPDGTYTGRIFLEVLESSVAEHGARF
Procedure: Antigen TIGIT (Human TIGIT (His), Sino Biological, 10917-H08H) was diluted with pH 9.6 of NaHCO₃ solution into 1 μg/mL, 50 μL per well was added to a 96-well ELISA plate, and placed overnight at 4° C. in a refrigerator. The next day, after washing with PBS twice, plate was blocked with 3% BSA (100 μL per well) by incubating at 37° C. for 1.5 h, and washed 4 times with PBST.

[2] = biological target: T1, recombinant human TIGIT (Human TIGIT …); assay: ELISA, coated human TIGIT-His
[3] = biological target: T2, full-length human TIGIT expressed on CHO-K cell membrane (CHO-K-TIGIT) (human, UniProt Q495A1 22-244); assay: flow cytometry, CHO-TIGIT cells
T2 construct: whole, on cells; also called CHO-TIGIT; membrane TIGIT
T2 sequence (looked up): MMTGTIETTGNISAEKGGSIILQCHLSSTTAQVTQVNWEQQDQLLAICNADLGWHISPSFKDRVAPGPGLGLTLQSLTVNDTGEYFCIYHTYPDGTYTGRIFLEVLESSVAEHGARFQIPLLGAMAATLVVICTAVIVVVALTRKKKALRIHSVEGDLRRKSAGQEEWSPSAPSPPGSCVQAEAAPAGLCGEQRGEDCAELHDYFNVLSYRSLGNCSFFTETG

[4] = biological target: T1, recombinant human TIGIT (Human TIGIT …); assay: BLI, antibody captured on anti-human Fc probe, TIGIT-His in solution
Procedure: The dissociation constant (Kd) of the human mouse chimeric TIGIT monoclonal antibody was detected by using a GATORS (ProbeLife) detection instrument and an HFC (LOT #2007065 Tray 2), Human antibody Capture probe. The human mouse chimeric TIGIT monoclonal antibody was diluted to 30 nM in a binding buffer (Q buffer [PBS (10 mM PH7.4)+0.02% Tween 20+0.2% BSA]). The recombinant human TIGIT protein was diluted in Q buffer in a 2-fold gradient to different concentrations varying in the range of 40 nM to 10 nM. A kinetic correlation determination was initiated by placing an antibody capture sensor in the continuously diluted antigen solution described above. Octet Data Acquisition software was opened and New Kinetics Experiment-Basic Kinetics mode was selected.

[5] = biological target: T1, recombinant human TIGIT (Human TIGIT …); assay: as above; remark: listed apart in the source
[6] = biological target: T1, recombinant human TIGIT (Human TIGIT …); assay: ELISA, recombinant human TIGIT (His) coated, anti-human-Fc-AP, OD405/490
Procedure: Antigen hTIGIT (Human TIGIT (His), Sino Biological, 10917-H08H) was diluted into 1 μg/mL with a NaHCO₃ solution of pH 9.6, 50 μl per well was added to a 96-well ELISA plate, and placed overnight in refrigerator at 4° C.
In order to determine whether the humanized TIGIT monoclonal antibody of the present disclosure could bind to the recombinant human TIGIT protein, in vitro testing was performed. Murine antibodies and Tiragolumab (Tira) were used as positive controls. The experimental method was the same as in Example 3.1.

[7] = biological target: T1, recombinant human TIGIT (Human TIGIT …); assay: competition ELISA on recombinant human TIGIT, CD155 as competitor
[8] = biological target: T1, recombinant human TIGIT (Human TIGIT …); assay: competition ELISA, human TIGIT (His) coated, antibody titrated against fixed CD155, bound CD155 detected, OD450/655
[9] = biological target: T1, recombinant human TIGIT (Human TIGIT …); assay: BLI, antibody captured on anti-human Fc probe, TIGIT-His in solution; remark: listed apart in the source

B1: anti-human TIGIT human mouse chimeric monoclonal antibody 7103-06 (hFc) (antibody, V domains shown)
VH: EEQLVESGGGLVKPGGTLKLSCAASGFTFSTYAMSWVRQSPEKRLEWVAEISSGGSYTYYSDTVTGRFTISRDNAKNTLYLEMSSLRSEDTAMYYCARKTLDYYALDYWGHGTSVTVSS
VL: DVQITQSPSYLAASPGETITINCRANKTISKYLAWYQEKPGKTNKLLIYSGSRLQSGIPSKFSGSGYGTDFTLTISSLEPEDFAMYYCQQHNEYPWTFGGGTKLEIK
IC50 [1]: 2.03 nM
EC50 [2]: 0.554 nM
EC50 [3]: 0.873 nM
Kd [4]: 1.29 nM
koff [4]: 0.00139 s⁻¹
kon [4]: 1.07e+06 M⁻¹ s⁻¹

B2: anti-human TIGIT human mouse chimeric monoclonal antibody 7103-01 (hFc) (antibody, V domains shown)
VH: QVQLQQPGAELVKPGASVKLSCKASGYTFISYNIYWVKQRPGQGLEWIGGVNPSNGNTNFNENFKSKATLTVDKSSSTAYMQLSSLTSDDSAVYFCTRGNYYGYEFAYWGQGTLVTVSA
VL: DIVMTQSHKFMSTSVGDRVSITCKASQHVSTAVAWYQQKPGQSPKLLIYSPSYRYTGVPDRFTGSGSGTDFTFTISSVQAEDLAVYYCQQHYSTPWTFGGGTKLEIK
notes: also called 7301-01 (hFc)
IC50 [1]: 4.03 nM
Kd [5]: 1.73 nM
koff [5]: 0.000951 s⁻¹
kon [5]: 549000 M⁻¹ s⁻¹
EC50 [2]: 0.499 nM
EC50 [3]: 1.08 nM
Kd [4]: 0.574 nM
koff [4]: 0.000405 s⁻¹
kon [4]: 706000 M⁻¹ s⁻¹

B3: anti-human TIGIT human mouse chimeric monoclonal antibody 7103-03 (hFc) (antibody, V domains shown)
VH: EVQLQQSGPELVKPGASVKISCKTSGYTFTEYTMHWVKQSHGKSLEWIGGINPNNGGTSYNQKFKGKATLTVDKSSSTAYMELRSLTSEDSAVYYCARGAYYRYDFDYWGQGTTLTVSS
VL: DIVMTQSHKFMSTSVGDRVSITCKASQDVRTAVVWYQQKPGQSPKLLIYSASYRYTGVPDRFTGSGSGTDFTFTISSVQAEDLAVYYCQQHYSTPWTFGGGTKLEIK
IC50 [1]: 1.46 nM
EC50 [2]: 0.38 nM
EC50 [3]: 0.596 nM
Kd [4]: 1.14 nM
koff [4]: 0.00091 s⁻¹
kon [4]: 801000 M⁻¹ s⁻¹

B4: anti-human TIGIT human mouse chimeric monoclonal antibody 7103-04 (hFc) (antibody, V domains shown)
VH: VQLQESGAELVKPGASVKLSCRASGYTFTDYFVYWVKQRPGQGLEWIGGINPSNGGATFNEKFKNKATLTVDTSSSTAYMQLSSLTSEDSAIYYCTRGNFYGYEFAYWGQGTLVTVSA
VL: DIVMTQSHKFISTSVGDRVSITCKASQHVSTAVVWYQQKPGQSPKLLIYSPSYRYTGVPDRFTGSGSGTDFTFTISSVQAEDLAVYYCQQHYITPWTFGGGTKLEIK
IC50 [1]: 3.3 nM
EC50 [2]: 0.554 nM
EC50 [3]: 0.867 nM
Kd [4]: 0.661 nM
koff [4]: 0.000558 s⁻¹
kon [4]: 845000 M⁻¹ s⁻¹

B5: humanized anti-human TIGIT monoclonal antibody P04666 (antibody, V domains shown)
VH: EVQVVESGGGLVKPGGSLRLSCAASGFTFSTYAMSWVRQAPEQRLEWVAEISSGGSHTFYADTVKGRFTISRDNAKNTLYLQMNSLRAEDTAVYYCARKTLDYYALDYWGQGTTVTVSS
VL: DVQITQSPSSVSASVGETITINCRASKSISKYLAWYQQKPGKAPKLLIYSGSRLQSGVPSRFSGSGSGTDFTLTISSLQPEDFATYYCQQHNEYPWTFGGGTKLEIK
EC50 [6]: 0.0137 µg/mL and 0.0915 nM
IC50 [7]: 0.127 nM
IC50 [8]: 0.019 µg/mL
Kd [9]: 2.19 nM
koff [9]: 0.00347 s⁻¹
kon [9]: 1.59e+06 M⁻¹ s⁻¹

B6: humanized anti-human TIGIT monoclonal antibody P04667 (antibody, V domains shown)
VH: EVQVVESGGGLVKPGGSLRLSCAASGFTFSTYAMSWVRQAPEQRLEWVAEISSGGSHTFYADTVKGRFTISRDNAKNTLYLQMNSLRAEDTAVYYCARKTLDYYALDYWGQGTTVTVSS
VL: DIQMTQSPSSVSASVGETITITCRASKSISKYLAWYQQKPGKAPKLLIYSGSRLQSGVPSRFSGSGSGTDFTLTISSLQPEDFATYYCQQHNEYPWTFGGGTKLEIK
EC50 [6]: 0.0125 µg/mL and 0.0836 nM
IC50 [7]: 0.631 nM
IC50 [8]: 0.094 µg/mL
Kd [9]: 4.2 nM
koff [9]: 0.00565 s⁻¹
kon [9]: 1.35e+06 M⁻¹ s⁻¹
